The test has as its target recombinant mouse OSM (mouse) (UniProt P53347). Description: cell-based or functional assay.
Chain of UniProt P53347 (P53347 24-206 limits assumed): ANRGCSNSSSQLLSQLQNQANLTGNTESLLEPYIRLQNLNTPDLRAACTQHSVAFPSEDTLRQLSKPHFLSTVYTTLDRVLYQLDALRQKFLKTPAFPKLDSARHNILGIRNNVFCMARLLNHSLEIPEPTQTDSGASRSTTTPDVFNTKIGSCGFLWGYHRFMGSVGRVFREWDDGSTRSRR

With “O-RFP (recombinant murine OSM receptor fusion protein) (from UniProt O70458 24-426; Q00560 123-322) (Fc fusion)”, the molar ratio of neutralizing agent required for 50% neutralization (SOCS3 expression in mouse colonic fibroblasts treated with 10 ng/ml recombinant mouse OSM, 2 hours) (molar ratio (neutralizing agent:OSM)) was determined as 1.7.

(Values after patent publication US20180022800A1.)
